Reference: the supplement of paper PMC10567573
± gives the standard deviation.

Assay: protein stability index of a GFP-peptide fusion (GPS, HEK-293T) (PSI 1-6); higher = more stable
Conditions: c terminus: a fixed tail appended
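Note: 24-mer peptide tiles fused after GFP, lentivirally expressed, FACS-sorted into six equal bins by GFP/DsRed ratio, decoded by Illumina sequencing, PSI is the read-weighted mean bin number.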

Sequence | protein stability index (treatment: DMSO) | protein stability index (treatment: MLN4924 1 uM, 8 h)
REVSSYPSTVGAEAQEEFLRVLGS [DFFB] | 4.33 ± 0.22 | 4.23 ± 0.16
EKWAEGGGHSRERADEPQWSLYPS [CHGB] | 4.28 ± 0.22 | 4.24 ± 0.064
ERLVAQFPSSGRFWKLYIEAEVTI [CSTF3] | 2.93 ± 0.61 | 2.71 ± 0.38
AGTAGVGETGSGDQAGGEGKHITV [MYOZ1] | 5.51 ± 0.14 | 5.05 ± 0.71
LRHLSPTPSEEHMKNKNNVTEFIL [OR4A15] | 3.27 ± 0.18 | 3.36 ± 0.12
RLWSLSYTKLPSSLQSTGKCLLYC [SLC25A39] | 2.78 ± 0.62 | 2.73 ± 0.52
EPNTFSPANVDASVMYRKWKESKG [CDC34] | 4.69 ± 0.15 | 4.59 ± 0.17
RGFCAFLGSWLVPFAYLTVLDLSK [POMT2] | 3.24 ± 0.7 | 3.16 ± 0.25
KIASLLGLLSKTAGFSPDCIMDDA [INTS4] | 2.57 ± 0.58 | 2.19 ± 0.55
KHWVYVKRGGNCPAPAPLVPQDPD [ZBTB22] | 3.32 ± 0.48 | 3.56 ± 0.43
CQEEQLRSHENKLRQLTAELAEHR [PSD2] | 4.41 ± 0.25 | 4.34 ± 0.16
TKDPDVAFHGLSLGLSLTNGLALG [PSD2] | 2.46 ± 0.21 | 2.43 ± 0.25
CKACITRWWEDLERDFPCPVCRKT [TRIM39] | 3.97 ± 0.27 | 4.25 ± 0.62
LARLEERSSEFYRVTTEQYQKAAE [CHCHD3] | 4.29 ± 0.27 | 4.29 ± 0.21
NEKITMQNLNDRLASYLEKVRALE [KRT13] | 2.86 ± 0.4 | 3 ± 0.32
SNDNEERLQVVKLLAKMFGAKDSE [PDS5B] | 3.17 ± 0.3 | 3.12 ± 0.4
DYWNLQKDYYPINESLASLPLRVS [CLPTM1] | 2.4 ± 0.2 | 2.52 ± 0.17
KKRMRYFDPLRNEYFFDRNRPSFD [KCNA1] | 2.47 ± 0.44 | 2.83 ± 0.19
DPACYEFLWGPRALIETSYVKVLH [MAGEA6] | 2.26 ± 0.78 | 2.21 ± 0.22
GRSRLYHDGKNQPGVAYPAFLGPD [SPSB4] | 3.84 ± 0.23 | 3.78 ± 0.19
DYLPLTALVDGQIFCLHGGLSPSI [PPP2CA] | 2.58 ± 0.93 | 2.21 ± 0.41
EPEPAEVTSTSQSPHSPDSSQSSL [DDIT3] | 5.48 ± 0.15 | 5.58 ± 0.13

Sequence | protein stability index (treatment: DMSO) | protein stability index (treatment: MLN4924 1 uM, 8 h)
TITIGMFPAVTVEVKSSIAGSSTW [SLC29A1] | 2.58 ± 0.6 | 2.4 ± 0.5
TCEDDEDEELGGSSRVPVGGGPEA [ZBTB22] | 5.49 ± 0.14 | 5.38 ± 0.61
HNRYTENSLRGVILDIHFLSQADF [FUT8] | 2.55 ± 0.67 | 2.41 ± 0.43
NRDEHSSRGYRNHRSSRETRDYAP [RBMY1A1] | 4.74 ± 0.072 | 4.63 ± 0.095
CDKHSKLFEEPEDPSNRSFFSEII [PPP2R2C] | 3.36 ± 0.17 | 3.57 ± 0.2
ALRSHLKSFSMANGLNARMMHGGS [RAB40B] | 2.71 ± 0.38 | 2.5 ± 0.62
KVEKMLISSIKEKYPSHSFIGEES [IMPA1] | 3.26 ± 0.2 | 3.17 ± 0.14
ISGALLQIKTLLALSCHEQEMVVS [SLC2A12] | 2.91 ± 0.5 | 2.42 ± 0.48
NMDPKAAEEEEEEEEEVDLACTPT [CCND1] | 5.6 ± 0.27 | 5.64 ± 0.13
VAKLQESQPGNAVIDKETIDLLAF [SDE2] | 2.98 ± 0.48 | 3.29 ± 0.37
RSKIYLRFLDYEMQNSNECKRNFV [NETO1] | 2.1 ± 0.2 | 2.28 ± 0.091
LVEDMQRELGRLRQQVTNHGRGTE [ZNF263] | 3.35 ± 0.33 | 3.55 ± 0.22
RLQRKLVEPKHCFTSPDYQQQCHE [SDE2] | 3.67 ± 0.2 | 3.69 ± 0.2
EQHGKKVPTVSRPYSFIEFDTFIQ [SEC22B] | 2.75 ± 0.28 | 2.95 ± 0.26
AYFPYFKKHNVTAVVRLNKKIYEA [CDC14A] | 2.34 ± 0.33 | 2.08 ± 0.16
RKRIHDSRVAGFNPALQLILTRTD [TOR1AIP2] | 4.2 ± 0.17 | 4.18 ± 0.19
ELGSESQGASESQAPGEENLLGEA [HDAC6] | 5.63 ± 0.29 | 5.54 ± 0.12
GLGVLRALGSRGWEPFDWGRLLEA [FANCE] | 2.88 ± 0.2 | 2.47 ± 0.042
AEDEEMNRMHESMKLFDSICNNKW [GNAI1] | 3.97 ± 0.21 | 4.02 ± 0.22
SVIEPVQESSFRSRKIAVEDENDL [MIA2] | 5.05 ± 0.49 | 5.21 ± 0.49
AEGRVVGRKDITSILRAPAYPLEL [MOSPD3] | 3.27 ± 0.19 | 3.33 ± 0.18
QSRGVPAVSESYSAPGACEEPTER [FBXO34] | 5.49 ± 0.18 | 5.49 ± 0.18

Sequence | protein stability index (treatment: DMSO) | protein stability index (treatment: MLN4924 1 uM, 8 h)
DKELLCCSCQADPRHQGHRVQPVK [TRIM35] | 3.56 ± 0.32 | 4.06 ± 0.3
PKARKQGVSPADMYRWKLSSHEPC [ADAMTSL2] | 2.94 ± 0.27 | 3.25 ± 0.14
CNCALEELRLVFGPLGDQLHAQLR [ELF3] | 2.46 ± 0.86 | 2.33 ± 0.38
LDQKKQDPRVQDFLQRCLESPFSR [NET1] | 3.51 ± 0.18 | 3.55 ± 0.44
TPYLKETLNSIWNVEDHINPKLPN [POMT2] | 3.37 ± 0.28 | 3.45 ± 0.2
HNLVVACEIQVRTLASAGGPDNLV [ADD1] | 2.51 ± 0.51 | 2.38 ± 0.52
LVAPVLEPGKQERDVYLPAGKWRS [MYORG] | 3.49 ± 0.16 | 3.75 ± 0.2
AQSGERECHIVVLTDDDVVDWDEE [BTBD10] | 5.205 ± 0.041 | 5.14 ± 0.28
LASLVSQGMIQLALSGASQPGPSG [RETREG3] | 2.89 ± 1.2 | 1.99 ± 0.66
EDKENYKKFYEAFSKNLKLGIHED [HSP90AB1] | 4.08 ± 0.34 | 4.22 ± 0.25
ACRRRDALTGHLRTHSVIKEETNH [IKZF1] | 4.01 ± 0.76 | 3.76 ± 0.89
LGYAASLEASVQDDAGTSGGPSSP [C2CD2L] | 5.45 ± 0.34 | 5.53 ± 0.22
VVPEKLDDLVPKGKKFLLLSINRY [ALG2] | 2.07 ± 0.36 | 2.08 ± 0.42
RMSEDKPQDYKKRLSVELTSSLFR [CTNNB1] | 3.4 ± 0.1 | 3.42 ± 0.25
VCVGSDVTSIHKYMVRRYFNKPSR [MYORG] | 2.37 ± 0.2 | 2.34 ± 0.18
EQATSLAILRVIRLVRVFRIFKLS [KCNA1] | 2.42 ± 0.63 | 2.7 ± 0.26
FKLFFNGRPGIVAWTLINLSFAAK [DHCR7] | 3.03 ± 0.28 | 2.46 ± 0.31
GRAENGERSDLEEDNEREGTENGA [ZC3H15] | 5.57 ± 0.068 | 5.57 ± 0.16
VEKETQEKMTILQTYFRQNRDEVL [ATP6V1G1] | 3.61 ± 0.34 | 3.78 ± 0.26
FTRKTLAEKKQELDKLRNEWASHT [SASS6] | 3.15 ± 0.47 | 3.77 ± 0.6
NEFLCTLQKKLDNLQCLYCEKTFR [ZNF277] | 2 ± 0.4 | 2.38 ± 0.32
